In the assay the target is T1, septin-7 (commercially purified, LSBio) (UniProt Q16181 1-437, labelled with RED-tris-NTA 2nd generation dye (Monolith His-Tag labeling kit)).
T1 sequence (looked up): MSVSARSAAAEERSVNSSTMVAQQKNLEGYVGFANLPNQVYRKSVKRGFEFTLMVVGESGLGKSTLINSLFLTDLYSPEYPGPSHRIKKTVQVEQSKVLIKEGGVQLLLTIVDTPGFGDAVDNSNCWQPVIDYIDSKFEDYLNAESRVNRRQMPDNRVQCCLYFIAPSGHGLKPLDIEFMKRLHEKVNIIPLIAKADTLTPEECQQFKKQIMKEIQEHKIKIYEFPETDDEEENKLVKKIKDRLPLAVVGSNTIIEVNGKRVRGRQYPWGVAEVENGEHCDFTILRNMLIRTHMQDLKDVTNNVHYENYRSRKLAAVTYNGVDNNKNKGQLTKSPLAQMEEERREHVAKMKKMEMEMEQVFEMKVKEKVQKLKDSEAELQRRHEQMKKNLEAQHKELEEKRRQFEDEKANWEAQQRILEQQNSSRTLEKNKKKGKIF
In words: MST.

B1: SOD1 trimer, F20L-H46Q (FH) trimer-stabilising mutant (enzyme)
chain: not shown
A word on the Kd: it is the constant that tells how readily two partners part at equilibrium. Take B1: the Kd is 6.84 µM.

For the origin of these results see article PMC11455619 (Structure (London, England : 1993), 2024).
